In patent publication US20030082740A1, “Histidine proline rich glycoprotein (HPRG) as an anti-angiogenic and anti-tumor agent” (priority 2001, published 2003):
Entries after “also recorded” stand apart in the source; their conditions may differ. Values belong to the molecule of their own block, whether it stands above or below them.

Experiments:
HUVEC = test: Endothelial cell tube formation on Matrigel; assay type: cell-based, human; conditions: for Inhibits Angiogenesis (Matrigel® assay): tube formation, concentration not stated
Protocol: Endothelial cells, for example, human umbilical vein endothelial cells (HUVEC) or human microvascular endothelial cells (HMVEC) which can be prepared or obtained commercially, are mixed at a concentration of 2×10^5 cells/mL with fibrinogen (5 mg/mL in phosphate buffered saline (PBS) in a 1:1 (v/v) ratio. Thrombin is added (5 units/ mL final concentration) and the mixture is immediately transferred to a 24-well plate (0.5 mL per well). The fibrin gel is allowed to form and then VEGF and bFGF are added to the wells (each at 5 ng/mL final concentration) along with the test compound. The cells are incubated at 37° C. in 5% CO2 for 4 days at which time the cells in each well are counted and classified as either rounded, elongated with no branches, elongated with one branch, or elongated with 2 or more branches. Results are expressed as the average of 5 different wells for each concentration of compound. Typically, in the presence of angiogenic inhibitors, cells remain either rounded or form undifferentiated tubes (e.g. 0 or 1 branch).
This assay is recognized in the art to be predictive of angiogenic (or anti-angiogenic) efficacy in vivo (Min, H Y et al., Cancer Res. 56: 2428-2433,1996). In an alternate assay, endothelial cell tube formation is observed when endothelial cells are cultured on Matrigel® (Schnaper et al., J. Cell. Physiol. 165:107-118 1995). Endothelial cells (1×10^4 cells/well) are transferred onto Matrigel®-coated 24-well plates, and tube formation is quantitated after 48 hrs. Inhibitors are tested by adding them either at the same time as the endothelial cells or at various time points thereafter. Tube formation can also be stimulated by adding (a) angiogenic growth factors such as bFGF or VEGF, (b) differentiation stimulating agents (e.g.,. PMA) or (c) a combination of these.
HUVEC were seeded onto Matrigel®-coated 96 well plates. Photomicrographs showing results are in FIGS. 4A and 4B.
Endothelial cell tube formation on Matrigel® was stimulated by incubation for 24 hr with FGF-2 (20 ng/ml ), VEGF (20 ng/ml ) and PMA (40 ng/ml ) for 24 hours (FIG. 4A).
Matrigel® tube formation assays in vitro were carried out as described above.

[1] = system: Lewis lung adenocarcinoma 3LL cells; test: Matrigel plug model, 3LL tumor cell-mediated angiogenesis; assay type: in vivo, mouse; conditions: concentration not given; FIG. 7 legend
Excerpt: In this assay, tumor cells, for example 1-5×10^6 cells of the 3LL Lewis lung carcinoma or the rat prostate cell line MatLyLu, are mixed with Matrigel® and then injected into the flank of a mouse following the protocol described in Sec. B., above. A mass of tumor cells and a powerful angiogenic response can be observed in the plugs after about 5 to 7 days. The anti-tumor and anti-angiogenic action of a compound in an actual tumor environment can be evaluated by including it in the plug. Measurement is then made of tumor weight, Hb levels or fluorescence levels (of a dextran-fluorophore conjugate injected prior to sacrifice). To measure Hb or fluorescence, the plugs are first homogenize with a tissue homogenizer.
The methods used in this study were essentially the same as described in Example VI except that 3LL tumor cells were used to stimulate angiogenesis instead of bFGF. Lewis lung adenocarcinoma 3LL cells (10^6 cells/plug) were mixed with cold Matrigel prior to injection. After seven days, the animals are sacrificed by cervical dislocation and the Matrigel® plugs recovered and processed as above.

[2] = system: human umbilical vein endothelial cell (HUVEC); test: bFGF-stimulated HUVEC proliferation (MTS); assay type: cell-based; conditions: 48 hours
Protocol: The ability of the compounds of the invention to inhibit the proliferation of EC's may be determined in a 96-well format. Type I collagen (gelatin) is used to coat the wells of the plate (0.1-1 mg/mL in PBS, 0.1 mL per well for 30 minutes at room temperature). After washing the plate (3× w/PBS), 3-6,000 cells are plated per well and allowed to attach for 4 hrs (37° C./5% CO2) in Endothelial Growth Medium (EGM; Clonetics) or M199 media containing 0.1-2% FBS. The media and any unattached cells are removed at the end of 4 hrs and fresh media containing bFGF (1-10 ng/mL) or VEGF (1-10 ng/mL) is added to each well. Compounds to be tested are added last and the plate is allowed to incubate (37° C./5% CO2) for 24-48 hrs. MTS (Promega) is added to each well and allowed to incubate from 1-4 hrs. The absorbance at 490 nm, which is proportional to the cell number, is then measured to determine the differences in proliferation between control wells and those containing test compounds.
bFGF is used to stimulate human umbilical vein endothelial cell (HUVEC) proliferation. Cells are incubated in the presence of bFGF alone or with added inhibitors of proliferation for 48 hours in a 96 well plate. Proliferation is then measured using the colorimetric reagent, MTS. […]

[3] = system: CAM of an 8-day old chick embryo; test: Chick chorioallantoic membrane (CAM) angiogenesis assay; assay type: in vivo; conditions: inhibitor at 20 μg/ml with bFGF 30 μg/ml; counted 4 days after implantation
Protocol: This assay is performed essentially as described by Nguyen et al. (Microvascular Res. 47:31-40 (1994)). A mesh containing either angiogenic factors (bFGF) or tumor cells plus inhibitors is placed onto the CAM of an 8-day old chick embryo and the CAM observed for 3-9 days after implantation of the sample. Angiogenesis is quantitated by determining the percentage of squares in the mesh which contain blood vessels.
This assay was performed essentially as described by Nguyen et al. (Microvascular Res. 47:31-40 (1994)). […] Angiogenesis was quantitated by counting the number of microvessels that contacted the filter. In this experiment, microvessel were counted 4 days after implantation of the filter.

caspase-3 = test: Caspase-3 activity in bFGF-stimulated HUVEC; assay type: cell-based, human; conditions: rHPRG at 10 and 100 nM, H/P at similar concentrations, relative to HKa
Protocol: The ability of the compounds of the invention to promote apoptosis of EC's may be determined by measuring activation of caspase-3. Type I collagen (gelatin) is used to coat a P100 plate and 5×10^5 ECs are seeded in EGM containing 10% FBS. After 24 hours (at 37° C. in 5% CO2) the medium is replaced by EGM containing 2% FBS, 10 ng/ml bFGF and the desired test compound. The cells are harvested after 6 hours, cell lysates prepared in 1% Triton and assayed using the EnzChek® Caspase-3 Assay Kit #1 (Molecular Probes) according to the manufactures' instructions.
In order to evaluate whether the observed anti-proliferative activity of HPRG was due to an induction of apoptosis, the activity of caspase-3 (an enzyme that is central to several pro-apoptotic pathways) was measured. HUVEC were grown in 100 mm^2 petri dishes in the presence of bFGF or bFGF+HPRG. Cells were extracted and caspase-3 activity measured using a fluorescent substrate.

[4] = system: angiogenesis stimulated by FGF-2; test: Matrigel plug model, angiogenesis stimulated by FGF-2; assay type: in vivo, mice; conditions: 0.25 μM in plug; 7 days
Protocol: This assay is performed essentially as described by Passaniti et al. (Lab Invest. 67:519-528 (1992). Ice-cold Matrigel® (e.g., 500 μL) (Collaborative Biomedical Products, Inc., Bedford, Mass.) is mixed with heparin (e.g., 50 μg/ml), FGF-2 (e.g., 400 ng/ml) and the compound to be tested. In some assays, bFGF may be substituted with tumor cells as the angiogenic stimulus. The Matrigel® mixture is injected subcutaneously into 4-8 week-old athymic nude mice at sites near the abdominal midline, preferably 3 injections per mouse. The injected Matrigel® forms a palpable solid gel. Injection sites are chosen such that each animal receives a positive control plug (such as FGF-2+ heparin), a negative control plug (e.g., buffer+heparin) and a plug that includes the compound being tested for its effect on angiogenesis, e.g., (FGF-2+heparin+compound). […] Hemoglobin (Hb) levels are determined using Drabkin's solution (e.g., obtained from Sigma) according to the manufacturers' instructions. […] The amount of fluorescence in the dispersed plug, determined fluorimetrically, also serves as a measure of angiogenesis in the plug. […]
In this study, ice-cold Matrigel® (500 μL) was mixed with heparin (50 μg/ml), FGF-2 (400 ng/ml) and the compound to be tested. […] Hemoglobin levels were determined using Drabkin's solution (from Sigma) according to the manufacturers' instructions.

Molecule: APPHG [ATN246]
Inhibits Angiogenesis (Matrigel® assay) (HUVEC): No
Inhibits Angiogenesis (Matrigel® assay) (HUVEC; listed as APPHG): no effect on neovascularization

Molecule: His-His-Pro-His-Gly (HHPHG; printed: His-His-Pro-His-Gly) [ATN230]
Inhibits Angiogenesis (Matrigel® assay) (HUVEC): Yes
Inhibits Angiogenesis (Matrigel® assay) (HUVEC; listed as HHPHG): active

Molecule: His-Pro-Pro-His-Gly (HPPHG; printed: His-Pro-Pro-His-Gly) [ATN228]
Inhibits Angiogenesis (Matrigel® assay) (HUVEC): Yes
Inhibits Angiogenesis (Matrigel® assay) (HUVEC; listed as HPPHG): active

induction of caspase-3 activity (caspase-3): induction of caspase-3
B1: HPRG: Histidine proline rich glycoprotein; rabbit HPRG has SEQ ID NO:3; applicants' designation ATN-234 (protein, UniProt P04196 19-525, looked up)
Histidine-rich glycoprotein: VSPTDCSAVEPEAEKALDLINKRRRDGYLFQLLRIADAHLDRVENTTVYYLVLDVQESDCSVLSRKYWNDCEPPDSRRPSEIVIGQCKVIATRHSHESQDLRVIDFNCTTSSVSSALANTKDSPVLIDFFEDTERYRKQANKALEKYKEENDDFASFRVDRIERVARVRGGEGTGYFVDFSVRNCPRHHFPRHPNVFGFCRADLFYDVEALDLESPKNLVINCEVFDPQEHENINGVPPHLGHPFHWGGHERSSTTKPPFKPHGSRDHHHPHKPHEHGPPPPPDERDHSHGPPLPQGPPPLLPMSCSSCQHATFGTNGAQRHSHNNNSSDLHPHKHHSHEQHPHGHHPHAHHPHEHDTHRQHPHGHHPHGHHPHGHHPHGHHPHGHHPHCHDFQDYGPCDPPPHNQGHCCHGHGPPPGHLRRRGPGKGPRPFHCRQIGSVYRLPPLRKGEVLPLPEANFPSFPLPHHKHPLKPDNQPFPQSVSESCPGKFKSGFPQVSMFFTHTFPK
inhibition of 3LL tumor-mediated angiogenesis [1]: inhibit 3LL tumor-mediated angiogenesis
inhibition of bFGF-stimulated proliferation of HUVEC ([2]; 100 nM, FIG. 2A): almost complete
inhibition of bFGF-stimulated proliferation of HUVEC ([2]; concentration not given, FIGS. 2A, 2B): inhibit proliferation
neovessel formation (blood vessel number) [3]: capable of inhibiting neovessel formation; also recorded: inhibit angiogenesis
inhibition of angiogenesis (hemoglobin in plug) [4]: completely inhibited angiogenesis; also recorded: inhibit angiogenesis
endothelial cell tube formation on Matrigel (HUVEC; 500 nM, stimulated with FGF-2, VEGF and PMA for 24 hours): almost completely disrupted tube formation; also recorded: inhibition of EC tube formation
